Measurements from patent US12168686 (CLOVER BIOPHARMACEUTICALS, dated 2024).

Columns and labels:
[1] = target: T1, soluble DR5-Fc fusion protein (UniProt O14763 56-182, limits assumed, biotin-labeled (sites not given)); assay: biolayer interferometry (ForteBio Octet RED 96), biotinylated DR5-Fc captured on streptavidin biosensor tips, TRAIL-Trimer in solution at graded concentrations
T1 construct: It was biotinylated and captured on streptavidin biosensors; also called DR5 (TRAIL-R2); biotinylated DR5-Fc; not shown: Fc part
Text: (§1) Figure 7: FIG. 7 is the kinetic studies of TRAIL-Trimer, TRAIL-Fc and native TRAIL binding to the soluble DR5-Fc fusion protein assessed by biolayer interferometry measurements. The Super Streptavidin biosensor tips of the ForteBio Octet RED 96 were coated with biotinylated DR5-Fc. The biosensor tips were dipped in increasing concentrations gradient of TRAIL-Trimer, TRAIL-Fc and native TRAIL to measure their binding to DR5-Fc and subsequently moved to wells containing buffer (PBS) to measure dissociation rates. The dissociation constant Kd was shown for each graph. Figure 7: Figure 7:
(§2) Comparison of TRAIL-Trimer, TRAIL-Fc and Native TRAIL in Receptor Binding Avidity In Vitro DR5 (TRAIL-R2) is one of TRAIL's functional receptors which initiates extrinsic apoptosis pathway signaling upon activation; thus, we examined the binding kinetic profile of TRAIL-Trimer, TRAIL-Fc and native TRAIL to a soluble DR5-Fc fusion protein. With Fortebio biolayer interferometry measurement, the biotin-labeled DR5-Fc was first captured on Streptavidin (SA) sensors, and real-time binding curves were measured and plotted by applying the sensor in gradient concentrations (15.4 nM-123.5 nM) of the three analytes (FIG. 7).

[2] = target: T1, soluble DR5-Fc fusion protein; assay: BLI (ForteBio Octet), biotin-labeled DR5-Fc on streptavidin sensors
Text: as §1, §2

T1 sequence (O14763 56-182 limits assumed): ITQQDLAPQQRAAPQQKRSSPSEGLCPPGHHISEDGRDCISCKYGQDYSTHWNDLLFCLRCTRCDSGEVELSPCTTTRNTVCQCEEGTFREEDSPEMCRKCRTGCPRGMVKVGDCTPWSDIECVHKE

- Kd [1]: < 1 pM
- koff [2]: < 1e-07 s⁻¹
- kon [2]: 81000 M⁻¹ s⁻¹
B1: TRAIL-Trimer (mature human TRAIL fused to the C-propeptide of human alpha1(I) collagen, Trimer-Tag, with a mutated BMP-1 site) (ligand)
chain: VRERGPQRVAAHITGTRGRSNTLSSPNSKNEKALGRKINSWESSRSGHSFLSNLHLRNGELVIHEKGFYYIYSQTYFRFQEEIKENTKNDKQMVQYIYKYTSYPDPILLMKSARNSCWSKDAEYGLYSIYQGGIFELKENDRIFVSVTNEHLIDMDHEASFFGAFLVGGSNGLPGPIGPPGPRGRTGDAGPVGPPGPPGPPGPPGPPSAGFDFSFLPQPPQEKAHDGGRYYRANDANVVRDRDLEVDTTLKSLSQQIENIRSPEGSRKNPARTCRDLKMCHSDWKSGEYWIDPNQGCNLDAIKVFCNMETGETCVYPTQPSVAQKNWYISKNPKDKRHVWFGESMTDGFQFEYGGQGSDPADVAIQLTFLRLMSTEASQNITYHCKNSVAYMDQQTGNLKKALLLKGSNEIEIRAEGNSRFTYSVTVDGCTSHTGAWGKTVIEYKTTKSSRLPIIDVAPLDVGAPDQEFGFDVGPVCFL
notes: also called SCB-313; disulfide bond-linked trimeric TRAIL fusion protein
